Reference: publication PMC7840129, “Structural basis for heme-dependent NCoR binding to the transcriptional repressor REV-ERBβ” (Science Advances, 2021)

System: REV-ERBβ LBD
Experiment: DSSO chemical cross-linking, SDS-PAGE
Type: binding, human
Conditions: 4 μM LBD ± heme with 2 μM RID, 600 μM DSSO, 25°C, 45 min
Procedure: To further support this stoichiometry, we performed chemical cross-linking analysis of apo or heme-bound LBD ± RID using DSSO (disuccinimidyl sulfoxide), a cross-linker that cross-links lysine residues as well as serine, threonine, and tyrosine residues (fig. S9, A and B).
Apo or heme-bound REV-ERBβ LBD and NCoR RID protein samples were cross-linked in Hepes gel filtration buffer [25 mM Hepes (pH 7.5) at room temperature, 50 mM NaCl, and 0.5 mM TCEP]. Non–cross-linked negative controls were generated using the same procedure without the addition of DSSO (Thermo Fisher Scientific). Samples included 4 μM apo LBD with or without 2 μM RID and 4 μM heme-bound LBD with or without 2 μM RID; complexes were preincubated 1 hour on ice. Reactions were initiated by spiking DSSO in DMSO at a final concentration of 600 μM in 50-μl solutions. The final molar ratio of cross-linker:protein was 100:1. The reactions were incubated at 25°C for 45 min before being quenched by the addition of tris (pH 8.0) to a final concentration of 50 mM. Each cross-link reaction was done in triplicate, and the reaction replicates were pooled after quenching. Samples (10 μl) were loaded for SDS-PAGE analysis with Coomassie staining to confirm the presence of cross-linked protein. […]

B1: WT RID: mouse NCoR RID (residues 1942 to 2208 in the X50 splice variant) (protein, UniProt Q60974 1942-2208, looked up, fragment)
chain: TITAANFIDVIITRQIASDKDARERGSQSSDSSSSLSSHRYETASDAIEVISPASSPAPPQEKPQAYQPDMVKANQAENESTRQYEGPLHHYRSQQESPSPQQQPPLPPSSQSEGMGQVPRTHRLITLADHICQIITQDFARNQVPSQASTSTFQTSPSALSSTPVRTKTSSRYSPESQSQTVLHPRPGPRVSPENLVDKSRGSRPGKSPERSHIPSEPYEPISPPQGPAVHEKQDSMLLLSQRGVDPAEQRSDSRSPGSISYLPSF
modifications: X50 splice variant
- LBD:RID complexes by cross-linking SDS-PAGE: two bands with molecular weights consistent with 1:1 and 2:1 LBD:RID complexes
